From patent US20180037620

How the values were obtained:
Experiment in all cases: cell_activity
Conditions in all cases: 79/528 porcine fibroblast clones; both TALEN pairs (5-2 and 3-2) plus HR oligo used together
TALEN ETV2 3-2 Left = system: TALEN ETV2 3-2 Left
TALEN ETV2 3-2 Right = system: TALEN ETV2 3-2 Right
TALEN ETV2 5-2 Left = system: TALEN ETV2 5-2 Left
TALEN ETV2 5-2 Right = system: TALEN ETV2 5-2 Right

“GATCCCAAGTCACACC (double strand) [ETV2 3-2 left half-site]” was tested. Which activity (% of clones homozygous for deletion) (TALEN ETV2 3-2 Left) did it give?
Its activity (% of clones homozygous for deletion) is 15.

Which activity (% of clones homozygous for deletion) (TALEN ETV2 3-2 Right) does the source give for “CCCCTAAGGGTCCTG (double strand) [ETV2 3-2 right half-site]” here?
Its activity (% of clones homozygous for deletion) is 15.

With “CTGGCCGGAAATCCCC (double strand) [ETV2 5-2 left half-site]” as the sequence, how does the activity (% of clones homozygous for deletion) (TALEN ETV2 5-2 Left) read?
Its activity (% of clones homozygous for deletion) is 15.

“GGGCTGCACCAGGCT (double strand) [ETV2 5-2 right half-site]” was tested. Which activity (% of clones homozygous for deletion) (TALEN ETV2 5-2 Right) did it give?
Its activity (% of clones homozygous for deletion) is 15.
